One test deals with sVEGFR‐1. Nature of the test: SPR, α5β1 integrin binding to immobilized sVEGFR‐1. The arrangement: species or system human. To be noted: sVEGFR‐1 immobilized, α5β1 integrin 80 nM-1 μM. How it is done:
Fig. 7 sVEGFR‐1/α5β1 integrin interaction. (A) SPR analysis of the interaction between sVEGFR‐1 and α5β1 integrin. sVEGFR‐1 is immobilized on sensor chips and α5β1 integrin is injected at different concentrations (from bottom to top: 80 nM, cyan; 160 nM, red; 350 nM, green; 600 nM, blue; and 1 μM, black). […] (B) Secondary structure representation of the 3D structure of VEGFR‐1 Ig‐like domain II. β‐strands are represented by arrows and labelled from A to H; loops are shown as tubular ribbons; the N‐ and C‐terminal ends of the domain are indicated by labels. Colour coding: peptide 12 (interacting with α5β1 integrin) is blue; Flt2‐11 peptide (interacting with NRP‐1) is yellow in the five‐residue NITVT region corresponding to the Flt2‐5 peptide (see text), and green in the remaining six‐residues region; the rest of the domain is magenta. (C) Proposed mechanism of action of Flt2‐11 peptide. Left: Light blue arrows indicate the high‐affinity interactions: (i) between NRP‐1 (yellow) and α5β1 integrin (black) on the EC membrane; and (ii) between NRP‐1 on the EC membrane and the sVEGFR‐1 substrate (green). The dark blue arrow indicates the low‐affinity interaction between α5β1 integrin on the EC membrane and the sVEGFR‐1 substrate. The low‐affinity interaction is stabilized by the two high‐affinity interactions, and the angiogenic stimulus is triggered. Centre: The Flt2‐11 peptide inhibits the high‐affinity interaction between NRP‐1 on the EC membrane and the sVEGFR‐1 substrate. The low‐affinity interaction between α5β1 integrin on ECs and the sVEGFR‐1 substrate is not sufficiently stable to trigger the angiogenic stimulus that starts upon integrin engagement. […]
(§1) SPR experiments were carried out using a BIACORE X system (Biacore AB, Uppsala, Sweden). […] The reaction was carried out in 20 mM sodium acetate at pH 5.0, which is about 2 points below the theoretical NRP‐1 isoelectric point calculated using the program pI‐tool. […]
(In general: SPR reads the build-up and loss of mass on a sensor chip optically.)

Test [1] relates to NRP‐1. In words: SPR, α5β1 integrin binding to immobilized NRP‐1. The arrangement: species or system human. To be noted: NRP‐1 immobilized, α5β1 integrin 20-500 nM. How it is done: SPR analysis of NRP‐1 interaction with α5β1 integrin or semaphorin 3A, in the absence or presence of Flt2‐11 peptide or ‘scrambled’ Flt2‐11. NRP‐1 is immobilized on sensor chip. (A) α5β1 integrin is injected at different concentrations (from bottom to top: 20 nM, cyan; 40 nM, red; 100 nM, green; 200 nM, blue; and 500 nM, black). […] (B) α5β1 integrin is injected at 200 nM concentration together with either Flt2‐11 peptide or scrambled Flt2‐11 peptide at different concentrations (no peptides, black; Flt2‐11 peptide […] and 20 μM, blue and cyan, respectively; scrambled Flt2‐11 peptide at 2 μM and 20 μM, red and purple, respectively). (C) Semaphorin 3A is injected at different concentrations (from bottom to top: 20 nM, cyan; 30 nM, red; 50 nM, green; 200 nM, blue; and 500 nM, black). […] (D) Semaphorin 3A is injected at 200 nM, and peptide Flt2‐11 at different concentrations (no peptides, black; Flt2‐11 peptide 1 μM and 10 μM blue and cyan, respectively; scrambled Flt2‐11 peptide 50 μM, red).
as §1
RU express the mass concentration‐dependent changes in the observed SPR signal, that is, the refractive index on the sensor chip surface. Changes in this signal are determined by the interaction between the immobilized protein (i.e., either NRP‐1 or VEGFR‐1) with the analyte protein (i.e., VEGFR‐1/Fc, α5β1 integrin or semaphorin 3A). […] Global fitting analyses of association and dissociation data for all ligand concentrations were carried out using BIAEVALUATION software 3.0 (Biacore, Uppsala, Sweden), which allows the ratio between association and dissociation constants (k on/k off) to be accurately determined. […]

A further test has as its target T1, Recombinant human NRP‐1 (human, UniProt O14786 22-856).
T1 construct: Neuropilin-1, human, recombinant soluble protein; see the vendor's datasheet (as far as I recall an extracellular fragment with a C-terminal His tag); also called Neuropilin‐1; soluble NRP‐1; source: bought: R&D Systems (3870‐N1)
T1 sequence (looked up): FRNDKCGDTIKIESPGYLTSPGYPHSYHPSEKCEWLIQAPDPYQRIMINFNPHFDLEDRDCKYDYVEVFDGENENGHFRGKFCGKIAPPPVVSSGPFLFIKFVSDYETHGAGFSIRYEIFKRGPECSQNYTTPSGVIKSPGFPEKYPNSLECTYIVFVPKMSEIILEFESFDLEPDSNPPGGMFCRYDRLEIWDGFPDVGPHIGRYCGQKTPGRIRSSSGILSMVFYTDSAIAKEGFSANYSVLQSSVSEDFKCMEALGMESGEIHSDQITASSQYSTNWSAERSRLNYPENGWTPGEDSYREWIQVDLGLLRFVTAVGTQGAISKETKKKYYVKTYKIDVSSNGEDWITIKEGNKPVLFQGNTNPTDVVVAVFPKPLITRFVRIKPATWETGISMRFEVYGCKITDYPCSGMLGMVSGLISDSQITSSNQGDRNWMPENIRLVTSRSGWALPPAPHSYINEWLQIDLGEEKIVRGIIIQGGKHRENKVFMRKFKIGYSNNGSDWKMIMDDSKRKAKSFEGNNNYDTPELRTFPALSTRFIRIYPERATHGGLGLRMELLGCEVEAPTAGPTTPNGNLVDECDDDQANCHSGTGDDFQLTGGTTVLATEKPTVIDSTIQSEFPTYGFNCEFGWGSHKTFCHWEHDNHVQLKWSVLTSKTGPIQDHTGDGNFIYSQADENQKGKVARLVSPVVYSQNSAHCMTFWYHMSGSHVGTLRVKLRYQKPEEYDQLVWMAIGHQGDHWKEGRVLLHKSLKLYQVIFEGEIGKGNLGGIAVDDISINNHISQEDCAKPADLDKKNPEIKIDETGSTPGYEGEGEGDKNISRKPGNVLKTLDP
In words: SPR; BIACORE X, CM5; NRP-1 immobilised by amine coupling; analyte in HEPES-buffered saline (10 mM HEPES pH 7.4, 150 mM NaCl, 0.005% P20); global 1:1 Langmuir fit. To be noted: both partners purified.

Test [2] relates to NRP‐1. Nature of the test: SPR, semaphorin 3A binding to immobilized NRP‐1. The arrangement: species or system human. To be noted: NRP‐1 immobilized, semaphorin 3A 20-500 nM. The method, then: SPR analysis of NRP‐1 interaction with α5β1 integrin or semaphorin 3A, in the absence or presence of Flt2‐11 peptide or ‘scrambled’ Flt2‐11. NRP‐1 is immobilized on sensor chip. (A) α5β1 integrin is injected at different concentrations (from bottom to top: 20 nM, cyan; 40 nM, red; 100 nM, green; 200 nM, blue; and 500 nM, black). […] (B) α5β1 integrin is injected at 200 nM concentration together with either Flt2‐11 peptide or scrambled Flt2‐11 peptide at different concentrations (no peptides, black; Flt2‐11 peptide […] and 20 μM, blue and cyan, respectively; scrambled Flt2‐11 peptide at 2 μM and 20 μM, red and purple, respectively). (C) Semaphorin 3A is injected at different concentrations (from bottom to top: 20 nM, cyan; 30 nM, red; 50 nM, green; 200 nM, blue; and 500 nM, black). […]
as §1
RU express the mass concentration‐dependent changes in the observed SPR signal, that is, the refractive index on the sensor chip surface. Changes in this signal are determined by the interaction between the immobilized protein (i.e., either NRP‐1 or VEGFR‐1) with the analyte protein (i.e., VEGFR‐1/Fc, α5β1 integrin or semaphorin 3A). […]

In another test the target is T2, Purified α5β1 integrin (UniProt P08648 42-1049; P05556 21-728).
T2 construct: integrin alpha-5 subunit; integrin beta-1 subunit; As far as I recall this product is purified from human tissue; also called integrin α5β1; source: bought: Merck Millipore (CC1052), purified, octyl‐β‐D‐glucopyranoside formulation
Nature of the test: SPR; BIACORE X, CM5; VEGFR-1/Fc captured (about 200 RU) on amine-coupled protein A; α5β1 integrin injected; HEPES-buffered saline (10 mM HEPES pH 7.4, 150 mM NaCl, 0.005% P20); 1:1 Langmuir fit. To be noted: both partners purified.

T2 sequence (P08648 42-1049, chain 1 of 2): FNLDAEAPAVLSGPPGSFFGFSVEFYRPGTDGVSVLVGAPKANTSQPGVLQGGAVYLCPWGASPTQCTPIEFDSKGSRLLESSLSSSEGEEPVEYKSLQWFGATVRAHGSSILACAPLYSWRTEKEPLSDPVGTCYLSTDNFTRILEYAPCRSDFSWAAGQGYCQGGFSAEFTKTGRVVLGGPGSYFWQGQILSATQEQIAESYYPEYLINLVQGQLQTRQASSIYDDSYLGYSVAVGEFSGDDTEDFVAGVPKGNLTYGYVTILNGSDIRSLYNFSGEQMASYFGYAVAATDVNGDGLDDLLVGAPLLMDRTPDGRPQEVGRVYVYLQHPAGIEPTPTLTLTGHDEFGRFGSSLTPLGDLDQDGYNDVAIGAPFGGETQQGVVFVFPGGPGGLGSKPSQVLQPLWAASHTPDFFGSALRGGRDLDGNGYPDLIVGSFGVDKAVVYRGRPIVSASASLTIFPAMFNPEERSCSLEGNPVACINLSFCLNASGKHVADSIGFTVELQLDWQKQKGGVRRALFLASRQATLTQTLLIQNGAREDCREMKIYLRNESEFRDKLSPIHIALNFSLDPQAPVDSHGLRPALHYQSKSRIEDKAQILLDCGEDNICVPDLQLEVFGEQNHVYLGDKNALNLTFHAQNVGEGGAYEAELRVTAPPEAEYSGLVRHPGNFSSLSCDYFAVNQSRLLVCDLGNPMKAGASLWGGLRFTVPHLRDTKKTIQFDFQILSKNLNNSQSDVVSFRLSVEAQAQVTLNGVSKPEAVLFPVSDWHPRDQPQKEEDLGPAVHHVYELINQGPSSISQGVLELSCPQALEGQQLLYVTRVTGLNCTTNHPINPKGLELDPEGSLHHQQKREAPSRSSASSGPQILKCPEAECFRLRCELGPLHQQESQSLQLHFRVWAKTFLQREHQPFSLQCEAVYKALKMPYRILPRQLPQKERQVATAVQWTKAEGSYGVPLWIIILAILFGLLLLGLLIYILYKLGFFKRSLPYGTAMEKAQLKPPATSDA
T2 sequence (P05556 21-728, chain 2 of 2): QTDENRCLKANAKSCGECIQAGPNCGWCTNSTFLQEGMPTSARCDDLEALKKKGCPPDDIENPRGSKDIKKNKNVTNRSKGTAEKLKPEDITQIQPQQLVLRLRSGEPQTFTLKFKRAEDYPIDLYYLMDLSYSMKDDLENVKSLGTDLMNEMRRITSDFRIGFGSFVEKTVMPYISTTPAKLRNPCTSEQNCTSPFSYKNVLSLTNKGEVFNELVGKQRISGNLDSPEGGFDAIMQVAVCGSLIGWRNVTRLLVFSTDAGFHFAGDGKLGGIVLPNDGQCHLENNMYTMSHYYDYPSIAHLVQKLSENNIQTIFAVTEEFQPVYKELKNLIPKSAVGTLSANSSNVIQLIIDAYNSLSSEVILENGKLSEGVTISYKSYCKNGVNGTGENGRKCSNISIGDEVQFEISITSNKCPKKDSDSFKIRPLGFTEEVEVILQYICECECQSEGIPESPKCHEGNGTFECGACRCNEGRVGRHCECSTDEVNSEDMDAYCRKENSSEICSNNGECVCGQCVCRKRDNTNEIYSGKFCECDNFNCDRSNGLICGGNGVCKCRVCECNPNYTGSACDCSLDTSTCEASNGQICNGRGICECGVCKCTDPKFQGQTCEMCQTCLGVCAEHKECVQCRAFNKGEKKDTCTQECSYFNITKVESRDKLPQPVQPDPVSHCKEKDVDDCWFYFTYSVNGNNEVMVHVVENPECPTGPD

As for “α5β1 integrin: Purified α5β1 integrin (CC1052), Merck Millipore”, the k off in the test with sVEGFR‐1 and in the test with NRP‐1 [1] was 0.00029 s⁻¹ in each case. Further, the k on is 1500 M⁻¹ s⁻¹ in the test on sVEGFR‐1 and 21000 M⁻¹ s⁻¹ in the test with NRP‐1 [1]. In addition, the Kd was 195 ± 40 nM on sVEGFR‐1 (read-out: K D, sVEGFR‐1/α5β1 integrin) and 14 ± 4 nM at NRP‐1 [1] (read-out: K D, NRP‐1/α5β1 integrin).

B1: semaphorin 3A (ligand)
chain: NYQNGKNNVPRLKLSYKEMLESNNVITFNGLANSSSYHTFLLDEERSRLYVGAKDHIFSFDLVNIKDFQKIVWPVSYTRRDECKWAGKDILKECANFIKVLKAYNQTHLYACGTGAFHPICTYIEIGHHPEDNIFKLENSHFENGRGKSPYDPKLLTASLLIDGELYSGTAADFMGRDFAIFRTLGHHHPIRTEQHDSRWLNDPKFISAHLISESDNPEDDKVYFFFRENAIDGEHSGKATHARIGQICKNDFGGHRSLVNKWTTFLKARLICSVPGPNGIDTHFDELQDVFLMNFKDPKNPVVYGVFTTSSNIFKGSAVCMYSMSDVRRVFLGPYAHRDGPNYQWVPYQGRVPYPRPGTCPSKTFGGFDSTKDLPDDVITFARSHPAMYNPVFPMNNRPIVIKTDVNYQFTQIVVDRVDAEDGQYDVMFIGTDVGTVLKVVSIPKETWYDLEEVLLEEMTVFREPTAISAMELSTKQQQLYIGSTAGVAQLPLHRCDIYGKACAECCLARDPYCAWDGSACSRYFPTAKRRTRRQDIRNGDPLTHCSDLHHDNHHGHSPEERIIYGVENSSTFLECSPKSQRALVYWQFQRRNEERKEEIRVDDHIIRTDQGLLLRSLQQKDSGNYLCHAVEHGFIQTLLKVTLEVIDTEHLEELLHKDDDGDGSKTKEMSNSMTPSQKVWYRDFMQLINHPNLNTMDEFCEQVWKRDRKQRRQRPGHTPGNSNKWKHLQENKKGRNRRTHEFERAPRSV
On to B1, for which, in the test with Recombinant human NRP‐1, the Kd was 24 ± 6 nM; the koff – broadly, a measure of how fast the partners let go of each other – stood at 9e-05 s⁻¹; the on-rate constant (kon) (as a rule, the second-order rate constant of association) stood at 3700 M⁻¹ s⁻¹. Moreover, in the test with NRP‐1 [2], the k off is 9e-05 s⁻¹ and the k on came to 3700 M⁻¹ s⁻¹.

B2: Recombinant human VEGFR‐1/Fc (Fc fusion, UniProt P17948 27-758, looked up)
chain: SKLKDPELSLKGTQHIMQAGQTLHLQCRGEAAHKWSLPEMVSKESERLSITKSACGRNGKQFCSTLTLNTAQANHTGFYSCKYLAVPTSKKKETESAIYIFISDTGRPFVEMYSEIPEIIHMTEGRELVIPCRVTSPNITVTLKKFPLDTLIPDGKRIIWDSRKGFIISNATYKEIGLLTCEATVNGHLYKTNYLTHRQTNTIIDVQISTPRPVKLLRGHTLVLNCTATTPLNTRVQMTWSYPDEKNKRASVRRRIDQSNSHANIFYSVLTIDKMQNKDKGLYTCRVRSGPSFKSVNTSVHIYDKAFITVKHRKQQVLETVAGKRSYRLSMKVKAFPSPEVVWLKDGLPATEKSARYLTRGYSLIIKDVTEEDAGNYTILLSIKQSNVFKNLTATLIVNVKPQIYEKAVSSFPDPALYPLGSRQILTCTAYGIPQPTIKWFWHPCNHNHSEARCDFCSNNEESFILDADSNMGNRIESITQRMAIIEGKNKMASTLVVADSRISGIYICIASNKVGTVGRNISFYITDVPNGFHVNLEKMPTEGEDLKLSCTVNKFLYRDVTWILLRTVNNRTMHYSISKQKMAITKEHSITLNLTIMNVSLQDSGTYACRARNVYTGEEILQKKEITIRDQEAPYLLRNLSDHTVAISSSTTLDCHANGVPEPQITWFKNNHKIQQEPGIILGPGSSTLFIERVTEEDEGVYHCKATNQKGSVESSAYLTVQGTSDKSNLE
notes: VEGFR-1 (Flt-1), human, recombinant Fc chimera; also called sVEGFR‐1; sVEGFR‐1/Fc; source: bought: R&D Systems (321‐FL‐050)
Turning to B2, in the test with Recombinant human NRP‐1, the Kd was found to be 25 ± 4 nM, the koff was 0.0003 s⁻¹ and the kon came out at 12000 M⁻¹ s⁻¹. In the test with Purified α5β1 integrin, the Kd is 195 ± 40 nM, the koff is 0.00029 s⁻¹ and the kon was 1500 M⁻¹ s⁻¹.

The values are drawn from PMC9290910, “Neuropilin‐1 is required for endothelial cell adhesion to soluble vascular endothelial growth factor receptor 1” (The Febs Journal, 2021).
